Article PMC11109203 (Nature Communications, 2024)
Where a chain is given by its changes, count along the chain named. Numbers in names are those of the source.

T1: FITC labeled Clr3 (S. pombe, UniProt P56523 1-687, FITC label)
T1 construct: Clr3, histone deacetylase, S. pombe; source: E. coli Rosetta, purified, labeled with the EZLabel Protein FITC Labeling Kit
T1 sequence (looked up): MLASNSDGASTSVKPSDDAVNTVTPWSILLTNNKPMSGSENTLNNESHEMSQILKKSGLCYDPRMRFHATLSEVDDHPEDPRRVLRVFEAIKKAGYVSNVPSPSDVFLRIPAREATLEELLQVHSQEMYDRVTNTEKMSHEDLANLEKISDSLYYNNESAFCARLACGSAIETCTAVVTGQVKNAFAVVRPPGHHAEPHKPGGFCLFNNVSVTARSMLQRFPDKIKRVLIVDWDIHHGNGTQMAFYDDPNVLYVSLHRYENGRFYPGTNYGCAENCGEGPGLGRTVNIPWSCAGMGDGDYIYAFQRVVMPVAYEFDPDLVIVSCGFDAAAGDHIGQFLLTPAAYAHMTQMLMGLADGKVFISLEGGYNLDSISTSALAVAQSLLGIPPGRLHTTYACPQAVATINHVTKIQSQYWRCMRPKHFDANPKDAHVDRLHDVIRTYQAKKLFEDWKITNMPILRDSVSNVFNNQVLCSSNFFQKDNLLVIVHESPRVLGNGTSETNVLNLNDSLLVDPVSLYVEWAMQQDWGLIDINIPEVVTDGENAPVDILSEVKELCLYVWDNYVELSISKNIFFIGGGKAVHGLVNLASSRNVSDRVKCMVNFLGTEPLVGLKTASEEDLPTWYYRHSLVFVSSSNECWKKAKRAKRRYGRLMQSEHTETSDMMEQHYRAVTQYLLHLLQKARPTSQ

B1: Clr3 (untagged) (enzyme, S. pombe, UniProt P56523 1-687, looked up)
chain: T1 sequence (looked up)
notes: Clr3, histone deacetylase, S. pombe; source: E. coli Rosetta, purified (Ni-NTA, Ulp1 digestion, Superdex); not shown: 6*His-Sumo, N-terminal, cleaved
B2: GST-Sad1_(1-169) (domain or fragment, S. pombe, UniProt Q09825 1-169, looked up)
chain: MFTNTPVGGKRERQNGAHPAWSTLGANSAQIHQNTADLASKMHKLRYTKIRSPPTRVSIESITPKQRFPAPNFEQAYHSNIRYEQEESDNEEFENVVKNGHEASTNVFYESDGDDEEFVNEEYENSIDEESDDEGYSLNEDTTATNASFRYPMNQRSTRKSQFYSSKFK
notes: pGEX-6P-1 vector; source: E. coli Rosetta, purified (glutathione Sepharose 4B, eluted with reduced glutathione, Superdex); not shown: GST, N-terminal, kept
B3: Sad1_(1-169) (domain or fragment, S. pombe, UniProt Q09825 1-169, looked up)
chain: B2 chain
notes: Cleavage is told in general for proteins not needed with their tag; used in ITC, SEC and MST; also called Sad1NTD; source: E. coli Rosetta, purified (glutathione Sepharose 4B, 3C digestion on beads, Superdex); not shown: GST, N-terminal, cleaved
B4: Sumo-Sir2 fusion protein (enzyme, S. pombe, UniProt O94640 1-475, looked up)
chain: MASNPLDNNMPTTPVEEKIPVASYSPSSSGSSSGASLLVDIMCGSKETEDEEVDSDEWDKPETENISDLDERSEMVRYLRASGYAKFLEKYLIEEELPVRSILKKLGINLPSALEEFEDIDLLPLLKEVLKREVARRIKLPHFNTFEDVVNLLKKAKNVVVLVGAGISTSLGILDFRSDNGFYARLARHGLSEPSEMFDIHTFRENPEIFYTFARDLLPETNHYSPSHAFIRLLEKKNKLSTLFTQNIDNLEKKTGLSDNKIIQCHGSFATATCIKCKHKVDGSELYEDIRNQRVSYCNECGKPPLKLRRVGQNKKEKHYFSDGDSESSEDDLAQPGIMKPDITFFGEALPDSFFNKVGSGELEETDLLICIGTSLKVAPVSELISVIPPTTPQIYISRTPVRHTQFDVNFLSPYCDWVIVEICKRAGWLNELQALCDLPECHSGSKTRAFETDLDIKFEEPSTYHITSTTNGSC
notes: Sir2, histone deacetylase, S. pombe; The legend says that some untagged Sir2 from self-proteolysis was present; source: E. coli Rosetta, purified (Ni-NTA, eluted with imidazole, Superdex); not shown: 6*His-Sumo, N-terminal, kept
B5: Sad1_(60-169) (domain or fragment, S. pombe, UniProt Q09825 60-169, looked up)
chain: ESITPKQRFPAPNFEQAYHSNIRYEQEESDNEEFENVVKNGHEASTNVFYESDGDDEEFVNEEYENSIDEESDDEGYSLNEDTTATNASFRYPMNQRSTRKSQFYSSKFK
notes: source: E. coli Rosetta, purified; not shown: GST, N-terminal, cleaved
B6: Sad1_(60-169) with charge-reverse mutations of D114 and E117 (domain or fragment)
chain: B5 chain with D55R, E58R
B7: Sad1_(60-169) F118A (domain or fragment, S. pombe, UniProt Q09825 60-169, looked up)
chain: B5 chain with F59A
notes: also called Sad1 F118A; source: E. coli Rosetta, purified; not shown: GST, N-terminal, cleaved

Legend:
Conditions in all cases: both partners purified
[1] = molecular target: T2, GST-Sad1_(1-169) with H2AB (Sad1-H2AB complex of the pull-downs) (S. pombe, UniProt Q09825 1-169; P04913 32-126; P04909 15-108); assay: pull-down; GST-Sad1_(1-169) on glutathione beads with silencing factors in the presence of H2AB; same buffer as the histone pull-downs
T2 construct: histone H2A, S. pombe, residues 15-108; m1 with m5; source: E. coli Rosetta, purified proteins mixed; not shown: GST, N-terminal, kept; 6*His, N-terminal, cleaved

[2] = molecular target: B1; assay: pull-down; GST-Sad1_(1-169) on glutathione beads with Sumo-Sir2 or untagged Clr3, in the absence of H2AB; same buffer as the histone pull-downs
[3] = molecular target: T3, S. pombe H2AB fusion protein (H2B_(32-126)-H2A_(15-108)) (S. pombe, UniProt P04913 32-126; P04909 15-108); assay: ITC; MicroCal ITC200, 20 °C; 25 mM Tris-HCl pH 8.0, 400 mM NaCl, 2 mM DTT; Sad1 (500 μM) titrated into H2AB (50 μM)
T3 construct: histone H2A, S. pombe, residues 15-108; No linker between the two parts is told; Modified pCDF-Duet vector, His tag followed by a 3C site; also called single-chain fusion of H2A and H2B; H2A-H2B fusion protein; source: E. coli Rosetta, purified (3C digestion, Superdex); not shown: 6*His, N-terminal, cleaved

[4] = molecular target: T1, FITC labeled Clr3; assay: MST; Monolith NT.115; 25 mM HEPES pH 7.5, 150 mM NaCl, 2 mM DTT; 20 nM FITC labeled Clr3; ligands (500 μM Sad1_(1-169) or 250 μM Sad1_(1-169)-H2AB complex) diluted by 12 gradients; medium MST power, 80% LED

T3 sequence (P04913 other isoform, or with tags, fused parts or gaps): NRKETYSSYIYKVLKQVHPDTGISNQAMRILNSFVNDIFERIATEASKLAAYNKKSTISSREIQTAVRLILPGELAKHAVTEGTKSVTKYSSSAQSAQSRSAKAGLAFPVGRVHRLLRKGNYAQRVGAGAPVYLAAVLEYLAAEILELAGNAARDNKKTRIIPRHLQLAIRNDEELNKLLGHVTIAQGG
T2 sequence (P04913 other isoform, or with tags, fused parts or gaps): as above

Question: Does B1 bind [1]?
Answer: Result: binds

Question: Does B2 bind [2]?
Answer: Result: binds

Question: How did the Kd [3] turn out when B3 was run?
Answer: The Kd was 9.5 µM.

Question: Does B3 bind [4]?
Answer: Result: binds

Question: Does B4 bind [1]?
Answer: Result: binds

Question: Does B5 bind [3]?
Answer: Result: binds

Question: For B6, which “fold decrease of binding affinity against wild-type Sad1_(60-169)” value [3] is on record?
Answer: The value was 5.6 fold.

Question: Does B7 bind [3]?
Answer: Result: binds
